{"source": "patent US20160326219A1", "about": "“OPTICALLY ACTIVATED RECEPTORS” (IST AUSTRIA (INSTITUTE OF SCIENCE AND TECHNOLOGY AUSTRIA), priority 2013, published 2016)", "molecules": {"B1": {"name": "Opto-mFGFR1: chimeric receptor of mFGFR1 intracellular domain and VfAU1-LOV, SEQ ID NO: 58 (protein)", "chain": "MGSSKSKPKDPSQRLDMKSGTKKSDFHSQMAVHKLAKSIPLRRQVTVSADSSASMNSGVLLVRPSRLSSSGTPMLAGVSEYELPEDPRWELPRDRLVLGKPLGEGCFGQVVLAEAIGLDKDKPNRVTKVAVKMLKSDATEKDLSDLISEMEMMKMIGKHKNIINLLGACTQDGPLYVIVEYASKGNLREYLQARRPPGLEYCYNPSHNPEEQLSSKDLVSCAYQVARGMEYLASKKCIHRDLAARNVLVTEDNVMKIADFGLARDIHHIDYYKKTTNGRLPVKWMAPEALFDRIYTHQSDVWSFGVLLWEIFTLGGSPYPGVPVEELFKLLKEGHRMDKPSNCTNELYMMMRDCWHAVPSQRPTFKQLVEDLDRIVALTSNQEYLDLSIPLDQYSPSFPDTRSSTCSSGEDSVFSHEPLPEEPCLPRHPTQLANSGLKRRVETGPDYSLVKALQMAQQNFVITDASLPDNPIVYASRGFLTLTGYSLDQILGRNCRFLQGPETDPRAVDKIRNAITKGVDTSVCLLNYRQDGTTFWNLFFVAGLRDSKGNIVNYVGVQSKVSEDYAKLLVNEQNIEYKGVRTSNMLRRKTGGSGVDYPYDVPDYALD", "modifications": "mFGFR1-VfAU1-LOV"}}, "assay_type_in_all_cases": "cell-based, human", "key": {"M38K cells [1]": {"test_system": "M38K cells", "assay": "Cell cycle distribution by flow cytometry (M38K cells)", "procedure": "Cell cycle distribution was analyzed by flow cytometry. 5×10^5 M38K cells were seeded in 25 cm^2 tissue culture flasks. After 24 h, cells were stimulated for 1 h or kept in the dark. After additional 24 h, cells were fixed in ethanol (70%), treated with 50 μg/ml RNAse A and 50 μg/ml propidium iodide (PI). Flow cytometry was performed on a FACSCalibur (BD Biosciences, Schwechat, Austria) and cell cycle distribution calculated with ModFit LT software (Verity Software House, Topsham, Me.)."}, "SPC212 cells": {"test_system": "SPC212 cells", "assay": "Stimulation and Western blot (SPC212 cells)", "settings": "~3 μW/mm^2", "from_the_text": "(§1) M38K and SPC212, two malignant pleural mesothelioma cell lines, were maintained in RPMI1640 supplemented with 10% FBS. Telomerase-immortalized microvascular hBE cells were maintained in Clonetics EGM2 MV endothelial growth medium (Lonza, Wakersville, Md.) supplemented with 5% FBS. For retrovirus generation, Opto-mFGFR1 or mCherry as control was subcloned into pQCXIP (Clontech, Mountain View, Calif.) using EcoRI and NotI restriction enzymes. Viral particles were generated in HEK293 cells by co-transfection with the helper plasmids pVSV-G and p-gag-pol-gpt. Supernatants were used to transduce M38K, SPC212 or hBE cells grown to 50% confluency in 6-well plates. Cells were selected with 0.8 μg/ml puromycin for 10 d and transgene expression was verified by immunoblotting.\nFor immunoblotting, 5×10^5 cells were seeded in each well of 6-well plates. After 24 h, medium was replaced with reduced serum medium (M38K, SPC212). After additional 20 h, cells were transferred to the stimulation incubator and illuminated for 1, 5 or 15 min or shielded from light. Cells were then either immediately or after additional 5, 15 or 30 min in the dark washed and lysed in 50 μl lysis buffer per well on ice. Lysates were sonicated and centrifuged (12000 g, 5 min, 4° C.). […] Chemiluminescence was developed with WesternC reagent (Biorad, Hercules, Calif.) and signals recorded on X-ray film (GE Healthcare)."}, "M38K cells [2]": {"test_system": "M38K cells", "assay": "Gene expression analysis, qPCR (M38K cells)", "procedure": "5×10^4 M38K cells were seeded into each well of a 6-well plates. After 24 h, cells were illuminated with a cycle of 5 min light/15 min dark for 48 h. Control cells were kept in the dark. Total RNA was extracted with TRIZOL (LifeTechnologies) and reverse transcribed with MMLV reverse transcriptase (Thermo Scientific). cDNAs corresponding to 50 ng RNA per sample were subjected to SYBR green qPCR on an Abi Prism 7500 Sequence Detection System using published primers (cf. Sakuma, 2012; #2508). GAPDH was used for normalization and fold change of expression level was calculated as 2-ddCt of illuminated versus non-illuminated cells."}, "[3]": {"test_system": "mFGFR1-related signaling pathways", "assay": "Detection of additional signaling pathways, Cignal Reporter assays (HEK293 cells)", "settings": "~3 μW/mm^2, FIG. 3", "procedure": "Activation of additional mFGFR1-related signaling pathways was assayed with Cignal Reporter assays (Qiagen, Hilden, Germany) consisting of mixtures of inducible pathway focused transcription factor-responsive firefly luciferase constructs and a constitutively expressing Renilla luciferase construct. Cells were transfected with 100.3 ng total DNA per well (receptor and reporter at ratio of 1:300) using Lipofectamine 2000 and thereafter treated as described above for detection of MAPK signaling. Cells were processed with the Dual-Glo® Luciferase Assay System (Promega) and signals detected with the microplate reader."}, "M38K cells [4]": {"test_system": "M38K cells", "assay": "Cell proliferation, EdU incorporation (M38K cells)", "procedure": "2×10^4 M38K cells were seeded in each well of 96-well plates. After 24 h, cells were stimulated for 1 h or kept in the dark. FGF2 (Sigma, St. Louis, Mo.) was added as indicated. After 24 h, cells were incubated with 10 μM EdU for 2 h. Subsequently, newly synthesized DNA was stained with Click-iT EdU (Life Technologies) following the manufacturer's protocol and counterstained with 5 μg/ml Hoechst dye. Cells were photographed on a Nikon Ti300 inverted microscope. To determine the percentage of cells with newly synthesized DNA, Hoechst positive nuclei and EdU positive nuclei were counted."}, "M38K cells [5]": {"test_system": "M38K cells", "assay": "All optical evaluation of pharmacological compounds / cell morphology, M38K cells stably expressing Opto-mFGFR1", "settings": "M38K cells; blue light (Opto-mFGFR1) or added growth factor", "from_the_text": "as §1\n10^5 M38K cells were seeded in each well of 6-well plates. After 24 h, cells were stimulated for 1 h or kept in the dark. FGF2 (Sigma) or PD166866 (Pfizer Global Research and Development, New London, Conn.) were added as indicated. After additional 24 h, cells were photographed on the Nikon Ti300 microscope. For quantification of cell morphology, all cell perimeters in randomly selected sections of phase contrast images were traced and aspect ratios (defined as length of major axis divided by length of minor axis of a fitted ellipse) calculated with ImageJ software (National Institute of Health). Greater than 50 individual values contributed to each average.\nFor M38K cells, cell morphology was evaluated as described above but followed by automated image analysis. Phase contrast images (typically three images from two wells) were automatically analyzed. Images were converted to greyscale, resized and divided into segments for local threshold correction (threshold was defined as most probably intensity multiplied by a constant factor of 0.85; Igor Pro, Wavemetrics, Lake Oswego, Oreg.). Cells were identified and measured in FIJI/ImageJ (Max Planck Society/National Institutes of Health; size limit: 40 to 600 pixel̂2, circularity limit: 0.01 to 1.00). Occasionally, outliers were removed manually. Typically 200 to 1800 individual values contributed to the averages of FIG. 9. For HEK293 cells, MAPK pathway activation was measured using luciferase as described above."}}}
{"molecule": "B1", "values": [{"measurement": "Cell cycle distribution upon light stimulation", "setting": "M38K cells [1]", "result": "a shift of cell cycle distribution towards the S-phase"}, {"measurement": "Phosphorylation upon blue light stimulation", "setting": "SPC212 cells", "result": "rapid phosphorylation of Opto-mFGFR1 and ERK1/2 as well as AKT and phospholipase Cy (PLCy)"}, {"measurement": "Gene expression changes upon light stimulation", "setting": "M38K cells [2]", "result": "EMT-like gene expression changes"}, {"measurement": "Activation of additional pathways linked to mFGFR1 in response to blue light", "setting": "[3]", "result": "activates"}, {"measurement": "Proliferation (% of nuclei incorporating 5-ethynyl-2'-deoxyuridine) upon light stimulation", "setting": "M38K cells [4]", "result": "increased proliferation"}, {"measurement": "Cell morphology response", "setting": "M38K cells [5]", "result": "EMT-like morphological alterations"}]}
